From PMC4369429

Molecular target: Steroid receptor coactivator 3 (SRC-3), recombinant, wild type (UniProt Q9Y6Q9)
Assay: cryo-EM structure

Chain of UniProt Q9Y6Q9 (Q9Y6Q9 whole entry): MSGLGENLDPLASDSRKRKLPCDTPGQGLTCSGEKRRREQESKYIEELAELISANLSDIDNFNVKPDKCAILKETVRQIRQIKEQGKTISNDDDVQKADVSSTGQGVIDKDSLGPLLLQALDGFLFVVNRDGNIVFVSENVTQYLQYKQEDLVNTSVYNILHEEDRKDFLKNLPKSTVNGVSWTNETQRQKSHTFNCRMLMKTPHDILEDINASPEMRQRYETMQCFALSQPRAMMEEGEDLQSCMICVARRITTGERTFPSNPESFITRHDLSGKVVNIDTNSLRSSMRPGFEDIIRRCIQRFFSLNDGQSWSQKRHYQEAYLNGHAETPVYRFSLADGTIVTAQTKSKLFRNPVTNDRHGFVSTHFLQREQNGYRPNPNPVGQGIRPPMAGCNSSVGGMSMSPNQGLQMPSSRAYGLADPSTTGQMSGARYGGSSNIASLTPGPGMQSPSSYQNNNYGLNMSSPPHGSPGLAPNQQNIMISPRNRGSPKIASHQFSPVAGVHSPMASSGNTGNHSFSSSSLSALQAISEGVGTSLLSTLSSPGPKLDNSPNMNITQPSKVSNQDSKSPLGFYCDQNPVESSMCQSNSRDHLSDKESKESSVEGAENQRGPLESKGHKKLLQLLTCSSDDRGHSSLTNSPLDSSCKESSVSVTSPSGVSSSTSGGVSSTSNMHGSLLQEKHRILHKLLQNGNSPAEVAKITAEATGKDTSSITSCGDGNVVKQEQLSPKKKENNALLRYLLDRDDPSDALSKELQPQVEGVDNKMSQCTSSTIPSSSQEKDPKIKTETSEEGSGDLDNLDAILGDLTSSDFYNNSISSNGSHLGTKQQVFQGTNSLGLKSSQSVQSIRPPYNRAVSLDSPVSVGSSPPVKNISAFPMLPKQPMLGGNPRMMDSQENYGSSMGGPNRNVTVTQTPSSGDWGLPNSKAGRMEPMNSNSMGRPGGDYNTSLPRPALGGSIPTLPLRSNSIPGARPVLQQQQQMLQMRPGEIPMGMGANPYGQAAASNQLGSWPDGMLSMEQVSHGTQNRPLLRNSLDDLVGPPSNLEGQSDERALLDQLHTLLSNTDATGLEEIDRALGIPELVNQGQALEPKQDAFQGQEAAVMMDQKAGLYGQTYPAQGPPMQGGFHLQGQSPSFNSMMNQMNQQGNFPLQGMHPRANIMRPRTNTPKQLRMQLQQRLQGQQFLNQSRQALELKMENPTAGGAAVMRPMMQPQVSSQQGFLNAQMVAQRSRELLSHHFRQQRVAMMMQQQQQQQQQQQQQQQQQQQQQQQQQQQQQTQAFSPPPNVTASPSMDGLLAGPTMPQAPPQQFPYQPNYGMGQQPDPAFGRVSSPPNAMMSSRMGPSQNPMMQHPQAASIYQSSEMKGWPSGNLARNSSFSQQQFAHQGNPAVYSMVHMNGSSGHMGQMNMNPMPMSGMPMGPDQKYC

stoichiometry N (p300 molecule per two SRC-3): 1
Substance: p300, recombinant, Q09472 1-2414
